According to patent US20240358849A1 (SUZHOU FUSE BIOSCIENCES, published 2024):

T1: IL-2hex, mutant human IL-2 (deltaA1/T3A/F42A/Y45A/L72G/C125S) (human, UniProt P60568 22-153)
T1 chain: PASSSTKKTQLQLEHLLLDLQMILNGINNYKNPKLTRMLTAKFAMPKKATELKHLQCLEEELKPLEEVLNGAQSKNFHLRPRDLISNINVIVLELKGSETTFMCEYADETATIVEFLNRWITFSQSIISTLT


Columns and labels:
[1] = target: T2, human Fibroblast Activation Protein (FAP), soluble antigen (human, UniProt Q12884 26-760, biotinylated when immobilized on streptavidin sensors); test: BLI per 6.1.3, human FAP;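 also: biolayer interferometry with immobilized antigen on sensors, antibody association up to 240 s then dissociation up to 420 s, reference-subtracted, global 1:1 fit with unlinked Rmax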
T2 construct: also called hFAP; biotinylated FAP

[2] = target: T1, IL-2hex, mutant human IL-2 …; test: Affinity (nM), Table 13B
[3] = target: T1, IL-2hex, mutant human IL-2 …; test: BLI per 6.1.3; column head IL-2 KD
[4] = target: T1, IL-2hex, mutant human IL-2 …; test: cell-based or functional assay
[5] = target: human FAP expressed on cells (HEK 293T-hFAP-E5; ExpiCHO-hFAP) (human, UniProt Q12884 1-760); test: cell-based or functional assay
[6] = target: T2, human Fibroblast Activation Protein …; test: Affinity (nM), Table 13B
[7] = target: T2, human Fibroblast Activation Protein …; test: BLI per 6.1.3

Row | Binder | Kd [1] [nM] | koff [1] [s⁻¹] | kon [1] [M⁻¹ s⁻¹] | Kd [2] [nM] | Kd [3] [nM] | EC50 of HEK-Blue IL2 assay (pM) with HEK 293T; variant as masking moiety of a configuration 3 immunoconjugate [4] [pM] | EC50 of HEK-Blue IL2 assay (pM) with HEK 293T-hFAP-E5; variant as masking moiety of a configuration 3 immunoconjugate [5] [pM] | Kd [6] [nM] | Kd [7] [nM]
1 | 872-5 VH Q96L (antibody, V domains shown) VH: EVQLVESGGGLVQPGGSLRLSCAASGFTFRGYIMSWVRQAPGKGLEWVSWISPEGSRTGYADSVKGRFTISRDNSKNTLYLQMNSLRAEDTAVYYCARLLYGTWFDYWGQGTLVTVSS VL: DIQMTQSPSSLSASVGDRVTITCRASQSISSYLNWYQQKPGKAPKLLIYAASSLQSGVPSRFSGSGSGTDFTLTISSLQPEDFATYYCQQATLLLPTFGQGTKVEIKR | 1.5 | 0.000794 | 542000 |  |  |  |  |  | 
2 | 872-5 VH S52G:VL A91G/T92R (antibody, V domains shown, BLI per 6.1.3) VH: EVQLVESGGGLVQPGGSLRLSCAASGFTFRGYIMSWVRQAPGKGLEWVSWIGPEGSRTGYADSVKGRFTISRDNSKNTLYLQMNSLRAEDTAVYYCARLQYGTWFDYWGQGTLVTVSS VL: DIQMTQSPSSLSASVGDRVTITCRASQSISSYLNWYQQKPGKAPKLLIYAASSLQSGVPSRFSGSGSGTDFTLTISSLQPEDFATYYCQQGRLLLPTFGQGTKVEIK | 2.2 | 0.00148 | 673000 |  |  |  |  |  | 
3 | 872-5 VL A91G (antibody, V domains shown, BLI per 6.1.3 (monovalent Fab-Fc)) VH: EVQLVESGGGLVQPGGSLRLSCAASGFTFRGYIMSWVRQAPGKGLEWVSWISPEGSRTGYADSVKGRFTISRDNSKNTLYLQMNSLRAEDTAVYYCARLQYGTWFDYWGQGTLVTVSS VL: DIQMTQSPSSLSASVGDRVTITCRASQSISSYLNWYQQKPGKAPKLLIYAASSLQSGVPSRFSGSGSGTDFTLTISSLQPEDFATYYCQQGTLLLPTFGQGTKVEIKR | 0.78 | 0.00102 | 1.3e+06 |  |  |  |  |  | 
4 | 872-5 VH S52G/Q96L:VL A91G/T92R (antibody, V domains shown, BLI per 6.1.3) VH: EVQLVESGGGLVQPGGSLRLSCAASGFTFRGYIMSWVRQAPGKGLEWVSWIGPEGSRTGYADSVKGRFTISRDNSKNTLYLQMNSLRAEDTAVYYCARLLYGTWFDYWGQGTLVTVSS VL: DIQMTQSPSSLSASVGDRVTITCRASQSISSYLNWYQQKPGKAPKLLIYAASSLQSGVPSRFSGSGSGTDFTLTISSLQPEDFATYYCQQGRLLLPTFGQGTKVEIKR | 0.241 | 0.000178 | 737000 |  |  |  |  |  | 
5 | 872-5 VH Q96L:VL A91G/T92R (antibody, V domains shown, BLI per 6.1.3) VH: EVQLVESGGGLVQPGGSLRLSCAASGFTFRGYIMSWVRQAPGKGLEWVSWISPEGSRTGYADSVKGRFTISRDNSKNTLYLQMNSLRAEDTAVYYCARLLYGTWFDYWGQGTLVTVSS VL: DIQMTQSPSSLSASVGDRVTITCRASQSISSYLNWYQQKPGKAPKLLIYAASSLQSGVPSRFSGSGSGTDFTLTISSLQPEDFATYYCQQGRLLLPTFGQGTKVEIKR | 0.707 | 0.000571 | 812000 |  |  |  |  |  | 
6 | 872-5 VL A91G/T92R (antibody, V domains shown, BLI per 6.1.3) VH: EVQLVESGGGLVQPGGSLRLSCAASGFTFRGYIMSWVRQAPGKGLEWVSWISPEGSRTGYADSVKGRFTISRDNSKNTLYLQMNSLRAEDTAVYYCARLQYGTWFDYWGQGTLVTVSS VL: DIQMTQSPSSLSASVGDRVTITCRASQSISSYLNWYQQKPGKAPKLLIYAASSLQSGVPSRFSGSGSGTDFTLTISSLQPEDFATYYCQQGRLLLPTFGQGTKVEIKR | 0.398 | 0.000411 | 1.03e+06 |  |  |  |  |  | 
7 | 872-5 VH S52G/Q96L (antibody, V domains shown, BLI per 6.1.3) VH: EVQLVESGGGLVQPGGSLRLSCAASGFTFRGYIMSWVRQAPGKGLEWVSWIGPEGSRTGYADSVKGRFTISRDNSKNTLYLQMNSLRAEDTAVYYCARLLYGTWFDYWGQGTLVTVSS VL: DIQMTQSPSSLSASVGDRVTITCRASQSISSYLNWYQQKPGKAPKLLIYAASSLQSGVPSRFSGSGSGTDFTLTISSLQPEDFATYYCQQATLLLPTFGQGTKVEIKR | 0.251 | 0.000161 | 645000 |  |  |  |  |  | 
8 | 872-5 VH S52G/Q96L/VL T92R (antibody, V domains shown, BLI per 6.1.3) VH: EVQLVESGGGLVQPGGSLRLSCAASGFTFRGYIMSWVRQAPGKGLEWVSWIGPEGSRTGYADSVKGRFTISRDNSKNTLYLQMNSLRAEDTAVYYCARLLYGTWFDYWGQGTLVTVSS VL: DIQMTQSPSSLSASVGDRVTITCRASQSISSYLNWYQQKPGKAPKLLIYAASSLQSGVPSRFSGSGSGTDFTLTISSLQPEDFATYYCQQARLLLPTFGQGTKVEIKR | 0.087 | 7.61e-05 | 878000 |  |  |  |  |  | 
9 | 872-5 VH S52G (antibody, V domains shown, BLI per 6.1.3) VH: EVQLVESGGGLVQPGGSLRLSCAASGFTFRGYIMSWVRQAPGKGLEWVSWIGPEGSRTGYADSVKGRFTISRDNSKNTLYLQMNSLRAEDTAVYYCARLQYGTWFDYWGQGTLVTVSS VL: DIQMTQSPSSLSASVGDRVTITCRASQSISSYLNWYQQKPGKAPKLLIYAASSLQSGVPSRFSGSGSGTDFTLTISSLQPEDFATYYCQQATLLLPTFGQGTKVEIKR | 2.2 | 0.00138 | 642000 |  |  |  |  |  | 
10 | 872-5 VL T92R (antibody, V domains shown, BLI per 6.1.3) VH: EVQLVESGGGLVQPGGSLRLSCAASGFTFRGYIMSWVRQAPGKGLEWVSWISPEGSRTGYADSVKGRFTISRDNSKNTLYLQMNSLRAEDTAVYYCARLQYGTWFDYWGQGTLVTVSS VL: DIQMTQSPSSLSASVGDRVTITCRASQSISSYLNWYQQKPGKAPKLLIYAASSLQSGVPSRFSGSGSGTDFTLTISSLQPEDFATYYCQQARLLLPTFGQGTKVEIKR | 1.6 | 0.001 | 614000 |  |  |  |  |  | 
11 | anti-IL-2/anti-FAP two-in-one antibody D029 (bispecific antibody, V domains shown) VH: EVQLVESGGGLVQPGGSLRLSCAASGFTFTWSFMSWVRQAPGKGLEWVSWIGPSGSYTDYADSVKGRFTISRDNSKNTLYLQMNSLRAEDTAVYYCARSQYGRYYSPDYYFDYWGQGTLVTVSS VL: DIQMTQSPSSLSASVGDRVTITCRASQDGGNYLNWYQQKPGKAPKLLIYGASTLYSGVPSRFSGSGSGTDFTLTISSLQPEDFATYYCQQGRTPPLTFGQGTKVEIKR |  |  |  | 431 | 431 | 1510 | 56 |  | 
12 | D029HV4LV2 (bispecific antibody, V domains shown, also called Rev1-Q27G/P94Y/L96F:H1V9) VH: EVQLVESGGGLVQPGGSLRLSCAASGFTFSRFFMSWVRQAPGKGLEWVSWIGPSGLYTDYADSVKGRFTISRDNSKNTLYLQMNSLRAEDTAVYYCARSQYGRYYSPDYYFDYWGQGTLVTVSS VL: DIQMTQSPSSLSASVGDRVTITCRASGALGFYLNWYQQKPGKAPKLLIYAASSLSSGVPSRFSGSGSGTDFTLTISSLQPEDFATYYCQQGRTYPFTFGQGTKVEIKR |  |  |  | 4500 |  | 6100 | 40 | 0.51 | 
13 | D029HV6LV2 (bispecific antibody, V domains shown, also called Rev1-Q27G:P94Y:L96F/S55L:S32A) VH: EVQLVESGGGLVQPGGSLRLSCAASGFTFTWAFMSWVRQAPGKGLEWVSWIGPSGLYTDYADSVKGRFTISRDNSKNTLYLQMNSLRAEDTAVYYCARSQYGRYYSPDYYFDYWGQGTLVTVSS VL: DIQMTQSPSSLSASVGDRVTITCRASGALGFYLNWYQQKPGKAPKLLIYAASSLSSGVPSRFSGSGSGTDFTLTISSLQPEDFATYYCQQGRTYPFTFGQGTKVEIKR |  |  |  | 199 |  | 4820 | 145 | 62 | 
14 | Rev1-Q27G/P94Y/L96F:H1V11 (bispecific antibody, V domains shown, H1V11 = D029 VH with W31Y:S32F:S55L; also called H1V11 with D029LV2) VH: EVQLVESGGGLVQPGGSLRLSCAASGFTFTYFFMSWVRQAPGKGLEWVSWIGPSGLYTDYADSVKGRFTISRDNSKNTLYLQMNSLRAEDTAVYYCARSQYGRYYSPDYYFDYWGQGTLVTVSS VL: DIQMTQSPSSLSASVGDRVTITCRASGALGFYLNWYQQKPGKAPKLLIYAASSLSSGVPSRFSGSGSGTDFTLTISSLQPEDFATYYCQQGRTYPFTFGQGTKVEIKR |  |  |  | 600 |  | 9370 | 57 | 0.51 | 
15 | Rev1-Q27G/P94Y/L96F:H1V10 (bispecific antibody, V domains shown, H1V10 = D029 VH with T30S:W31R:S55L; also called H1V10 with D029LV2) VH: EVQLVESGGGLVQPGGSLRLSCAASGFTFSRSFMSWVRQAPGKGLEWVSWIGPSGLYTDYADSVKGRFTISRDNSKNTLYLQMNSLRAEDTAVYYCARSQYGRYYSPDYYFDYWGQGTLVTVSS VL: DIQMTQSPSSLSASVGDRVTITCRASGALGFYLNWYQQKPGKAPKLLIYAASSLSSGVPSRFSGSGSGTDFTLTISSLQPEDFATYYCQQGRTYPFTFGQGTKVEIKR |  |  |  | 700 |  | 14800 | 117 | 10 | 
16 | D029 HV3LV1 (bispecific antibody, V domains shown, also called D029L-Rev1/S55L:T30R:S32F; Rev1/S55L:T30R:S32F) VH: EVQLVESGGGLVQPGGSLRLSCAASGFTFRWFFMSWVRQAPGKGLEWVSWIGPSGLYTDYADSVKGRFTISRDNSKNTLYLQMNSLRAEDTAVYYCARSQYGRYYSPDYYFDYWGQGTLVTVSS VL: DIQMTQSPSSLSASVGDRVTITCRASQALGFYLNWYQQKPGKAPKLLIYAASSLSSGVPSRFSGSGSGTDFTLTISSLQPEDFATYYCQQGRTPPLTFGQGTKVEIKR |  |  |  | 237 | 427 | 7380 | 35 |  | 1.79
